Experimental data reported in patent publication US20240392002A1 (EXELIXIS, published 2024).
Changes are numbered by the printed parent chain. Numbers in names are those of the source.

B1: I2C-13 IgG1 (antibody, V domains shown)
VH: EVQLVESGGGLVQPGGSLRLSCAASGFTFSSYGIHWVRQAPGKGLEWVAYIHSGIGYTIYADSVKGRFTISADTSKNTAYLQMNSLRAEDTAVYYCARTSSTSTSVMDYWGQGTLVTVSS
VL: DIQMTQSPSSLSASVGDRVTITCRASQSVSSAVAWYQQKPGKAPKLLIYSASSLYSGVPSRFSGSRSGTDFTLTISSLQPEDFATYYCQQTYWSPGTFGQGTKVEIK
notes: human IgG1
B2: I2C-15 IgG1 (antibody, V domains shown)
VH: EVQLVESGGGLVQPGGSLRLSCAASGFTFSSYFIHWVRQAPGKGLEWVALIYPDTDDTYYADSVKGRFTISADTSKNTAYLQMNSLRAEDTAVYYCARYGYLGVGAFDYWGQGTLVTVSS
VL: B1 VL with T91L, S94T
notes: human IgG1
B3: I2A-35 IgG1 (antibody, V domains shown)
VH: EVQLVESGGGLVQPGGSLRLSCAASGFTFSAYDIHWVRQAPGKGLEWVAWIDPYGGDTDYADSVKGRFTISADTSKNTAYLQMNSLRAEDTAVYYCARSPSYMQYGGLDYWGQGTLVTVSS
VL: B1 VL with T91Y, W93S, P95L, G96L
notes: human IgG1
B4: I2C-24 IgG1 (antibody, V domains shown)
VH: EVQLVESGGGLVQPGGSLRLSCAASGFTFSRYYIHWVRQAPGKGLEWVADIDSYGGFTYYADSVKGRFTISADTSKNTAYLQMNSLRAEDTAVYYCARAHRFLQGGYVLDYWGQGTLVTVSS
VL: B1 VL with T91Y, Y92S, S94G, P95L, G96W
notes: human IgG1
B5: I2C-17 IgG1 (antibody, V domains shown)
VH: EVQLVESGGGLVQPGGSLRLSCAASGFTFSDYFIHWVRQAPGKGLEWVAYIYPASGGTCYADSVKGRFTISADTSKNTAYLQMNSLRAEDTAVYYCARGYIPHMAALDYWGQGTLVTVSS
VL: B1 VL with T91Y, S94W
notes: human IgG1
B6: I2C-12 IgG1 (antibody, V domains shown)
VH: EVQLVESGGGLVQPGGSLRLSCAASGFTFSSYFIHWVRQAPGKGLEWVAAIHPAFSFTYYADSVKGRFTISADTSKNTAYLQMNSLRAEDTAVYYCARPRLSSAVVLDYWGQGTLVTVSS
VL: B1 VL with T91G, W93Y, S94F
notes: human IgG1
B7: I2C-14 IgG1 (antibody, V domains shown)
VH: EVQLVESGGGLVQPGGSLRLSCAASGFTFESYDIHWVRQAPGKGLEWVAAIFSYGGYTTYADSVKGRFTISADTSKNTAYLQMNSLRAEDTAVYYCARGSYGDGRGMDYWGQGTLVTVSS
VL: B1 VL with T91Y, W93Y, S94W
notes: human IgG1
B8: I2C-16 IgG1 (antibody, V domains shown)
VH: EVQLVESGGGLVQPGGSLRLSCAASGFTFSSYWIHWVRQAPGKGLEWVAAIHPSGSYTYYADSVKGRFTISADTSKNTAYLQMNSLRAEDTAVYYCARVGLLVTSVMDYWGQGTLVTVSS
VL: B1 VL with T91Y, W93Y, S94F
notes: human IgG1
B9: I2A-8 IgG1 (antibody, V domains shown)
VH: EVQLVESGGGLVQPGGSLRLSCAASGFTFYGYYIHWVRQAPGKGLEWVAGIRPGGTYTYYADSVKGRFTISADTSKNTAYLQMNSLRAEDTAVYYCARYRYPAFDYWGQGTLVTVSS
VL: B1 VL with T91R, Y92R, W93Q, S94H, P95L, G96W
notes: human IgG1
B10: I2C-22 IgG1 (antibody, V domains shown)
VH: EVQLVESGGGLVQPGGSLRLSCAASGFTFSSYSIHWVRQAPGKGLEWVAAIYPYWGTTEYADSVKGRFTISADTSKNTAYLQMNSLRAEDTAVYYCARPSGVTYGYALDYWGQGTLVTVSS
VL: B1 VL with T91Y, W93Y, G96W
notes: human IgG1
B11: I2C-21 IgG1 (antibody, V domains shown)
VH: EVQLVESGGGLVQPGGSLRLSCAASGFTFSSYYIHWVRQAPGKGLEWVAWIDPYISYTYYADSVKGRFTISADTSKNTAYLQMNSLRAEDTAVYYCARDSELVSGYAMDYWGQGTLVTVSS
VL: B1 VL with T91G, Y92D, W93S, P95L, G96V
notes: human IgG1
B12: I2C-7 IgG1 (antibody, V domains shown)
VH: EVQLVESGGGLVQPGGSLRLSCAASGFTFDSYYIHWVRQAPGKGLEWVAWIDPYGLDTKYADSVKGRFTISADTSKNTAYLQMNSLRAEDTAVYYCAREPGDYGMDYWGQGTLVTVSS
VL: B1 VL with T91A, W93G, P95L, G96L
notes: human IgG1
B13: I2A-37 IgG1 (antibody, V domains shown)
VH: EVQLVESGGGLVQPGGSLRLSCAASGFTFSWYGIHWVRQAPGKGLEWVAYIDSYTSSTYYADSVKGRFTISADTSKNTAYLQMNSLRAEDTAVYYCARSHFGHYDYVMDYWGQGTLVTVSS
VL: B1 VL with T91A, W93D, S94Q, P95L, G96Y
notes: human IgG1
B14: I2C-19 IgG1 (antibody, V domains shown)
VH: EVQLVESGGGLVQPGGSLRLSCAASGFTFTSYDIHWVRQAPGKGLEWVAWIDPGLSYTSYADSVKGRFTISADTSKNTAYLQMNSLRAEDTAVYYCARASIGGGVPVMDYWGQGTLVTVSS
VL: B1 VL with T91Y, Y92V, W93T, S94G, G96Y
notes: human IgG1
B15: I2C-18 IgG1 (antibody, V domains shown)
VH: EVQLVESGGGLVQPGGSLRLSCAASGFTFAGYPIHWVRQAPGKGLEWVAAIDPDGGYTYYADSVKGRFTISADTSKNTAYLQMNSLRAEDTAVYYCARHTGFHRYRGMDYWGQGTLVTVSS
VL: B1 VL with T91Y, S94F, G96P
notes: human IgG1
B16: I2C-3 IgG1 (antibody, V domains shown)
VH: EVQLVESGGGLVQPGGSLRLSCAASGFTFSHYWIHWVRQAPGKGLEWVALIAPGGDYTSYADSVKGRFTISADTSKNTAYLQMNSLRAEDTAVYYCARSGLPGFDYWGQGTLVTVSS
VL: B1 VL with T91Y, Y92K, W93S, G96L
notes: human IgG1
B17: I2A-12 IgG1 (antibody, V domains shown)
VH: EVQLVESGGGLVQPGGSLRLSCAASGFTFTTYYIHWVRQAPGKGLEWVAYISPEDGYTSYADSVKGRFTISADTSKNTAYLQMNSLRAEDTAVYYCARAYYSAVMDYWGQGTLVTVSS
VL: B1 VL with T91S, Y92W, W93S, S94P, P95A, G96T
notes: human IgG1
B18: I2A-33 IgG1 (antibody, V domains shown)
VH: EVQLVESGGGLVQPGGSLRLSCAASGFTFDDYYIHWVRQAPGKGLEWVAWIDSYGGYTSYADSVKGRFTISADTSKNTAYLQMNSLRAEDTAVYYCARSSYYYPGGFDYWGQGTLVTVSS
VL: B1 VL with T91W, Y92D, W93S, S94T, P95L, G96Y
notes: human IgG1
B19: I2C-5 IgG1 (antibody, V domains shown)
VH: EVQLVESGGGLVQPGGSLRLSCAASGFTFSSYDIHWVRQAPGKGLEWVAWIYPYWGYTIYADSVKGRFTISADTSKNTAYLQMNSLRAEDTAVYYCARGTYAPALDYWGQGTLVTVSS
VL: B1 VL with T91F, W93S, S94Y, P95L, G96S
notes: human IgG1
B20: I2C-25 IgG1 (antibody, V domains shown)
VH: EVQLVESGGGLVQPGGSLRLSCAASGFTFSDYYIHWVRQAPGKGLEWVAYIAPYGGFTYYADSVKGRFTISADTSKNTAYLQMNSLRAEDTAVYYCARDSYRRGYVSGFDYWGQGTLVTVSS
VL: B1 VL with T91R, W93S, G96S
notes: human IgG1
B21: I2C-26 IgG1 (antibody, V domains shown)
VH: B4 VH with R31D, A99D, H100P, R101H, Q104D, G105D, G106V
VL: B1 VL with T91Y, Y92S, S94G, P95L, G96W
notes: human IgG1
B22: I2A-30 IgG1 (antibody, V domains shown)
VH: EVQLVESGGGLVQPGGSLRLSCAASGFTFDSYFIHWVRQAPGKGLEWVAYIYSWGSYTHYADSVKGRFTISADTSKNTAYLQMNSLRAEDTAVYYCARGHRRYFALDYWGQGTLVTVSS
VL: B1 VL with T91V, W93F, S94T
notes: human IgG1
B23: I2A-24 IgG1 (antibody, V domains shown)
VH: EVQLVESGGGLVQPGGSLRLSCAASGFTFSTYGIHWVRQAPGKGLEWVAAIYPGTSYTGYADSVKGRFTISADTSKNTAYLQMNSLRAEDTAVYYCAREYFMGMDYWGQGTLVTVSS
VL: B1 VL with T91Y, W93Y, S94W
notes: human IgG1

Biological target: T1, ROR1 Ig-like domain (human, UniProt Q01973 42-147)
T1 construct: also called Acro Cat. No. RO1-H5221
T1 sequence (Q01973 42-147): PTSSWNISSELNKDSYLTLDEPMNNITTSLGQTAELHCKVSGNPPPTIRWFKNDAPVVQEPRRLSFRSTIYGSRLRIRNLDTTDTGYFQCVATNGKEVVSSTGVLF
Experiment: BLI, IgG1 on biosensor, soluble ROR1 domain
Text: (§1) To measure binding affinity in ROR binder discovery campaigns, the VL and VH domains identified in the phage screen described above were formatted into a bivalent monospecific native human full-length IgG1 architecture and immobilized to a biosensor on an Octet (Pall ForteBio) biolayer interferometer. Soluble ROR antigens, including the extracellular domains of ROR1 (Acro Cat. No. RO1-H522γ) and ROR2 (Acro Cat. No. R02-H52E5), as well as the individual ROR1 Frizzled (Acro Cat. No. RO1-H5222), Ig-like (Acro Cat. No. RO1-H5221), and Kringle (Acro Cat. No. RO1-H5223) domains, were then added to the system and binding measured.
(§2) ROR binding candidates, formatted in the bivalent monospecific native human full-length IgG1 architecture, were further characterized for binding to ROR1 and/or ROR2. […] ROR binding candidates were also characterized for their binding to specific ROR1 domains.

| Binder | binding result |
| --- | --- |
| B1 | binds |
| B2 | binds |
| B3 | binds |
| B4 | binds |
| B5 | binds |
| B6 | binds |
| B7 | binds |
| B8 | binds |

Biological target: T2, extracellular domain of human ROR2 (human, UniProt Q01974 34-403)
T2 construct: bought protein; biotinylated in the bivalent assay format; also called Acro Cat. No. RO2-H52E5
T2 sequence (Q01974 34-403 limits assumed): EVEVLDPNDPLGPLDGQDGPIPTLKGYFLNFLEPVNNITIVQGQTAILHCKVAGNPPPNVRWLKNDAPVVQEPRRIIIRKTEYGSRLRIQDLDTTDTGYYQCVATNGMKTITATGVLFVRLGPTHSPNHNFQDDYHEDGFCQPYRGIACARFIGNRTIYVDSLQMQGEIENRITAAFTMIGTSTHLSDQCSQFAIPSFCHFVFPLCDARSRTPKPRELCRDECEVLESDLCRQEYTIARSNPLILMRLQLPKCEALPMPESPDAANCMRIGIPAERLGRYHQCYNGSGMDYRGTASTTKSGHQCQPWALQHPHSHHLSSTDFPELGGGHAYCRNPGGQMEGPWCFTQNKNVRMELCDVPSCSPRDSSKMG
Experiment: BLI, IgG1 on biosensor, soluble ROR ectodomain
Text: as §1, §2

| Binder | binding result |
| --- | --- |
| B1 | binds |
| B9 | no binding |
| B2 | binds |
| B10 | binds |
| B11 | binds |
| B12 | binds |
| B13 | no binding |
| B14 | binds |
| B15 | binds |
| B16 | binds |
| B4 | binds |
| B5 | binds |
| B17 | no binding |
| B6 | binds |
| B7 | binds |
| B18 | no binding |
| B19 | binds |
| B20 | binds |
| B21 | binds |
| B22 | no binding |
| B23 | binds |
| B8 | binds |

Biological target: T3, extracellular domain of human ROR1 (human, UniProt Q01973 30-406)
T3 construct: bought protein; biotinylated in the bivalent assay format; also called Acro Cat. No. RO1-H522y
T3 sequence (Q01973 30-406 limits assumed): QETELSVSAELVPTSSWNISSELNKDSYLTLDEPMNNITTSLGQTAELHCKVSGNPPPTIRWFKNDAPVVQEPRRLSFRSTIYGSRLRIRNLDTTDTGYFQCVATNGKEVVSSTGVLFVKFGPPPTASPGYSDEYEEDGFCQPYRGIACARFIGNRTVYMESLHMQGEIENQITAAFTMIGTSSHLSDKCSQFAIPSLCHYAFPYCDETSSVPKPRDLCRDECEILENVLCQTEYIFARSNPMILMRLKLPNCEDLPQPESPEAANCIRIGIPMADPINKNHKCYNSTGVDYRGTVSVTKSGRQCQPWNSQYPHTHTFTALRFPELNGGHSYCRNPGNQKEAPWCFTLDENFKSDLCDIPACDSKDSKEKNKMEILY
Experiment: BLI, IgG1 on biosensor, soluble ROR ectodomain
Text: as §1, §2

| Binder | binding result |
| --- | --- |
| B1 | binds |
| B2 | binds |
| B10 | binds |
| B11 | no binding |
| B12 | no binding |
| B14 | no binding |
| B15 | binds |
| B16 | no binding |
| B4 | binds |
| B5 | binds |
| B6 | binds |
| B7 | binds |
| B19 | no binding |
| B20 | no binding |
| B21 | no binding |
| B23 | binds |
| B8 | binds |
